# Measurements from patent US20250289873A1 (BROADWING BIO, published 2025).
# T1: human CFHL3-His (ATX-P-58) (human, UniProt Q02985 19-330)
# T1 construct: also called human CFHR3 protein; CFHR3; not shown: C-terminal His tag (and linker)
# T1 sequence (looked up): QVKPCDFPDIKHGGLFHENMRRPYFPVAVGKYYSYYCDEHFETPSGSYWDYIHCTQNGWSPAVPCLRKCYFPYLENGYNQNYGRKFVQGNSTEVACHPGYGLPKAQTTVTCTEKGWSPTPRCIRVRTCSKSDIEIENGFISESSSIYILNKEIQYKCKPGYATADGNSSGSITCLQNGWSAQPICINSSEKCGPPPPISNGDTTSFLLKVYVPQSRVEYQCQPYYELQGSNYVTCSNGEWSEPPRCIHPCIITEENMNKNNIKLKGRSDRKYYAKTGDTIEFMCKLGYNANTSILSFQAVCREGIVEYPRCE
# T2: Human CFHL1-Y402H-His (ATX-P-421) (human)
# T2 construct: also called human CFHL-1 (Y402H) protein
# T2 chain: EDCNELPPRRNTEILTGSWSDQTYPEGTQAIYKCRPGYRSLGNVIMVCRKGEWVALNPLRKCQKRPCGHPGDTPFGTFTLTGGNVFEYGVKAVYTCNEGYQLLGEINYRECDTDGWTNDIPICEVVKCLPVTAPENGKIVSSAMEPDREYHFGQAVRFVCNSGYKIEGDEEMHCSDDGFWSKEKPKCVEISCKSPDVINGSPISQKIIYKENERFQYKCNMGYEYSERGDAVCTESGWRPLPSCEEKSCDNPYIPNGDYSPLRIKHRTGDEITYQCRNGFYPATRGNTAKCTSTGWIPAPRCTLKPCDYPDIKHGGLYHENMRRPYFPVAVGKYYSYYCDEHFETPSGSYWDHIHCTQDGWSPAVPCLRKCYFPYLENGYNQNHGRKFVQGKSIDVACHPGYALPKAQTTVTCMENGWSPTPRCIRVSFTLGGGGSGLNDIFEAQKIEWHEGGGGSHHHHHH
# Columns and labels:
# [1] = biological target: T1, human CFHL3-His (ATX-P-58); assay: Carterra LSA biosensor, mAb printed on chip, human CFHL3-His at 550 nM
# Procedure: (§1) Experiments were also conducted to determine the reactivity of the CFHR4 antibodies with the human CFHR3 protein (FIG. 9). The binding experiments were performed on Carterra LSA with a running buffer of PBS pH 7.40, 1% BSA, 0.05% Tween20. Antibodies were covalently printed on an HC30M chip. Chip was activated with 33 mM s-NHS and 133 mM EDC in 100 mM MES pH 5.5 for 7 minutes. Antibodies at 10 mg/ml in acetic acid buffer pH 4.5 were used for printing for 10 min. The printed chip was then quenched with 1 M ethanolamine pH 8.5 for 7 min. For the reactivity assay, ATX-P-58, human CFHL3-His, at 550 nM was tested with 5 min association followed by 15 min dissociation. Results were processed and analyzed in Carterra LSA Kinetics Software. The data was referenced with the interstitial reference spots and double-referenced to a buffer cycle, and then the responses (nm) after association were reported. Isotype control was used to determine the cutoff response for positive binding.
# [2] = biological target: T2, Human CFHL1-Y402H-His (ATX-P-421); assay: Carterra LSA biosensor, mAb printed on chip, human CFHL1-Y402H-His at 380 nM
# Procedure: as §1, with “CFHL-1 (Y402H)” for “CFHR3”, “10).” for “9).”, “ATX-P-421,” for “ATX-P-58,”, “CFHL1-Y402H-His,” for “CFHL3-His,”, “380” for “550”
binding result [1],binding result [2],Binder
binds,binds,"ATX-P-583 (antibody, human IgG1, kappa, N297A, V domains shown) VH: QVQLVQSGAEVKKPGASVKVSCKASGYTFTTYGISWVRQAPGQGLEWMGWISAYSGNTHYAQSLQDRVTMTTDTSTSTAYMEVRSLRSDDTAVYYCAKDEGYCSSTGCLNLFDPWGQGTLVTVSS VL: DIQMTQSPSSLSASVGDRVTITCRASQNIGSYLNWYQQKPGNAPKLLIYATSTLQSGVPSRFSGSGSGTDFTLIISSLHPEDFTVYYCQQSFIIPFTFGPGTKVDIKR"
binds,binds,"ATX-P-563 (antibody, human IgG1, kappa, N297A, V domains shown) VH: QVQLQESGPGLMKPSETLSLTCTVSGGSISSHYWSWIRQPPGKGLEWIGYIFYSGNINYNPSLKSRVTISVDTSKNQFSLKLRSVTTADTAVYYCARDRGGSYSYHFDCWGQGTLVTVSS VL: DIQMTQSPSSVSASVGDRVTITCRASQSFAGWLAWYQQKPGKAPKLLIYAASTLQSGVPSRFSGSGSGTDFTLTISSLQPEDFATYYCQQANSFPLTFGGGTKVEIKR"
binds,binds,"ATX-P-566 (antibody, human IgG1, kappa, N297A, V domains shown) VH: QVQLQQSGPGLVKPSQTLSLTCAISGDSVSSNSAAWNWIRQSPSRGLEWLGRTYYRSKWFNNYSVSVKSRIAINPDTSKNQFSLQLNSVTPEDTAVYYCARDLGELLDWYFDLWGRGTLVTVSA VL: EIVLTQSPGTLSLSPGDRATLSCRASQSVRNSYVAWYQQKPGQAPRLLIYGASSRATGIPDRFSGSGSGTDFSLTIGRLEPEDFVVYYCQQYGNSPLTFGGGTKVEIKR"
binds,binds,"ATX-P-577 (antibody, human IgG1, kappa, N297A, V domains shown) VH: QVQLQESGPGLVKPSGTLSLTCAVSGGSISSSNWWTWVRQPPGKGLEWIGETYHDGSTNYNPSLKSRVTISVDKSKNQFSLKLSSVTAADTAVYYCLEFYFDYWGQGTLVTVSS VL: DIQMTQSPSSLSASVGDRVTITCRASQDIRNDLGWYQQKPGKVPKRLIYAASSLQSGVPSRFSGSGSGTEFTLTISSLQPEDFASYYCLQYNNYPFTLGPGTKVDIKR"
binds,binds,"ATX-P-580 (antibody, human IgG1, kappa, N297A, V domains shown) VH: QVQLQESGPGLVKPSGTLSLTCAVSGGSISTSDWWTWVRQPPGKGLEWIGEIYHSGSTNYNPSLKSRVTISVDKSKNQFSLKLSSVTAADTAVYYCADWYFDLWGRGTLVTVSS VL: DIQMTQSPSSLSASVGDRVTITCRASQGIRNDLGWYQQKPGKAPKRLIYAASSLQSGVPSRFSGSGSGTEFTLAISSLQPEDFATYYCLHFNSYPFTFGPGTKVDIKR"
binds,binds,"ATX-P-579 (antibody, human IgG1, kappa, N297A, V domains shown) VH: QVQLQESGPGLVKPSGTLSLTCAVSGASISTSNWWTWVRQPPGKGLEWIGEIYHDGSTNYSPSLQSRVTISVDKSKNQFSLTLTSVTAADTAIYYCGDFYIDVWGNGTTVTVSS VL: DIQMTQSPSSLSASVGDRVTITCRASQGIRKDLGWYQQKPGKAPKRLIYTASTLQSGVPSRFSGSGSGTEFTLTISSLQPEDFATYYCLQYNNYPFTFGPGTKVDIKR"
binds,binds,"ATX-P-578 (antibody, human IgG1, kappa, N297A, V domains shown) VH: EVQLVESGGGLVQPGGSLRLSCAASGFTFSRYSMNWVRQAPGKGLEWVSYISSSSSTIFHADSVKGRFTISRDNAKNSLYLQMNSLRDEDTAVYYCARGNWNYYYMDVWGKGTTVTVSS VL: DIQMTQSPSTLSASVGDRVTISCRASQSVNSWLAWYQQKPGKAPKLLIYKASNLEGGVPSSFSGSGSGTEFTLTISSLQPDDFATYYCQQYDTSWTFGQGTKVEIKR"
binds,binds,"ATX-P-564 (antibody, human IgG1, kappa, N297A, V domains shown) VH: EVQLVESGGGLVKPGGSLRLSCAASGFTFSSYTMNWVRQAPGKGLEWVSSISSSSSYTYYADSVRGRFTISRDNAKNSLYLQMSSLRAEDTAVYYCARSASIAAGMDVWGKGTTVTVSS VL: DIVMTQSPLSLPVTPGEPASISCRSSQSLLHSTGYNFLDWYLQKPGLSPQLLIYLASNRASGVPDRFSGSGSGTDFTLKISRVEAEDVGVYYCMQALQTPYTFGQGTKLEIKR"
binds,binds,"ATX-P-565 (antibody, human IgG1, kappa, N297A, V domains shown) VH: QVQLVESGGGVVQPGRSLRLSCAASGFTFNTYGIHWVRQAPGKGLEWVAVIWHDGSSKNYVDSVTGRFTISRDNSKNTVYLQMNSLRAEDTAVYYCARRGNWNYGFYYYYMDVWGKGTTVTVSS VL: DIVMTQSPLSLPVTPGEPASISCRSSQRLLHSSGYNYLDWYLQKPGQSPQLLIYLGSSRASGVPDRFSGSGSGTDFTLKISRVEAEDVGVYYCMQGLQTPPTFGQGTKVEIKR"
binds,binds,"ATX-P-576 (antibody, human IgG1, kappa, N297A, V domains shown) VH: EVQLVESGGGLVQPGRSLRLSCTASGFTFDDYEMHWVRQAPGKGLEWVSDISRNSGRIGYADSVKGRFTISRDNAKNSLYLQMNSLRAEDTALYYCAKDIWGSGYFDYWGQGILVTVSS VL: DIQMTQSPSSVSASVGDRVTITCRTSQGIRNWLAWYQQKPGKAPKLLIYAASSLQTGGPSRFSGSGSGTDFTLTISSLQPEDFATYYCQQANSFPYTFGQGTKLEIKR"
binds,binds,"ATX-P-568 (antibody, human IgG1, kappa, N297A, V domains shown) VH: EVQLVESGGGLVQPGGSLRLSCAASGFPFSSYVMSWVRQAPGKGLEWVSVISVSGGSTFYADSVRGRFTISRDNSKNTLYLQVYSLRAEDTAVYYCAKDGLAVAGFDHWGQGTLVTVSS VL: DIQMTQSPSTLSASVGDRVTITCRASQSISTWLAWYQQKPGKAPKLLIHKASGLESGVPSRFSGSGSGTEFTLTISSLQPDDFATYYCQQYNSFSLIFGGGTRVEIKR"
binds,binds,"ATX-P-587 (antibody, human IgG1, kappa, N297A, V domains shown) VH: QVQLQQSGPGLVKPSQTLSLTCAISGDSVSSNSAAWNWIRQSPSRGLEWLGKTYYRSKWYNYYALSVKSRITINPDTSKNQFSLHLNSVTPEDTAVYYCARDGDYYLPSPFDLWGHGTMVTVSS VL: not shown"
binds,binds,"ATX-P-562 (antibody, human IgG1, kappa, N297A, V domains shown) VH: QVQLQQSGPGLVKSSQTLSLTCAISGDTVSSNSAAWNWIRQSPSRGLEWLGRTFYRSRWSAAYAASVSSRITINPDTSKNQFSLQLTSVTPADTAVYYCAREGVGSSTGFDYWGQGTLVTVSS VL: DIQMTQSPSSVSASIGDRVTITCRASKGISIWLAWYQQKPGKAPKVLISAASSLQSGAPSRFSGSGSGTDFTLTISSLQPEDFATYYCQQANSFPPTFGQGTKVEIKR"
binds,binds,"ATX-P-574 (antibody, human IgG1, kappa, N297A, V domains shown) VH: EVQLVESGGGLVQRGGSLRLSCVASGFTFSSYAMSWVRQAPGKGLEWVSVISGSGGTTYYADSVKGRFTISRDDSKKTLYLQMNSLRAEDTAVYYCAKRGDYGDYMDVWGKGTTVTVSS VL: DIQMTQSPSSVSASVGDRVTITCRASQGITTWLAWYQQKPGKAPKLLIFGASSLESGVPSRFSGSGSGTDFTLTISSLQPEDFATYYCQQANSFPWTFGQGTKVEIKR"
binds,binds,"ATX-P-573 (antibody, human IgG1, kappa, N297A, V domains shown) VH: QVQLQQSGPGLVKPSQTLSLTCAISGDSVSSNSAAWNWIRQSPSRGLEWLGRTYYRSKLYSDYAVSVKSRITINPDTSRNQFSLQLNSVTPEDTAVYYCAREGGYTYGYDYWGQGTLVTVSS VL: DIQMTQSPSSVSASVGDRVTITCRASQGISSWLAWYQQKPGKAPKVLIYAASSLQSGVPSRFSGSGSGTDFTLTISSLQPEDFATYYCQQANSFPPTFGPGTKVDIKR"
